In patent US20220112295A1 (Novo Nordisk, published 2022):
Residue numbers refer to the chain shown, from its start.

T1: cyno CD30L LZ (cynomolgus monkey, UniProt A0A7N9CVX7 63-234)
T1 construct: extracellular domain; not shown: N-terminal isoleucine zipper motif
T1 sequence: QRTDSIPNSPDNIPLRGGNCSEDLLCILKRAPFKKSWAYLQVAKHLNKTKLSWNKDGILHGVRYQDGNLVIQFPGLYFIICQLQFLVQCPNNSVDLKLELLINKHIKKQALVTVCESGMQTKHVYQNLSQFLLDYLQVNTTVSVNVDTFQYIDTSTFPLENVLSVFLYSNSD

B1: Antibody A (antibody, V domains shown)
VH: QVQLQESGPGLVKPSETLSLTCTVSGGSISSYIWSWIRQPAGKGLEWIGRIYASGNTNYNPSLKSRVTMSVDTSKNQFSLKLSSMTAADTAVYYCARDYRVAGTYYYYYGLDVWGQGTTVTVSS
VL: QSALTQPASVSGSPGQSITISCTGTSSDVGVYDYVSWYQQHPGKAPKLMIYEVSNRPSGVSNRFSGSKSGNTASLTISGLQTEDEADYYCSSYTSRSTWVFGGGTKLTVL
notes: Human antibody (XenoMouse); also called mAb A; anti-hCD30L A
B2: Antibody F (antibody, V domains shown)
VH: QVQLQESGPGLVKPSETLSLTCTVSGGSISSYYWSWIRQPAGKGLEWIGRIFASGSTNYNPSLRSRVTMSRDTSKNQFSLKLSSVTAADTAVYYCAKERVGVQDYYHYSGMDVWGQGTTVTVSS
VL: B1 VL with V31L, D33N, H41Q, N55K, K68T, T82A, E83D, Y89S, R96S
notes: also called mAb F
B3: Antibody E (antibody, V domains shown)
VH: QVQLQESGPRLVKPSETLSLTCTVSGGSITNNYWSWIRQPAGKGLEWIGRVYSSGLTNYKPSLKSRVTMSVDTSKNQFSLRLNSVTAADTAVYYCARERATVTTRYHYDGMDVWGQGTSVTVSS
VL: QSALTQPASVSGSPGQSITISCTGSSSDIGTYNYVSWYQQYPGKAPELMIYEVNNRPSGVSDRFSGSTSGNTASLTISGLQANDEADYYCSSYSSSSTWVFGGGTKLTVL
notes: also called mAb E

biological target: T1, cyno CD30L LZ; assay: blocking of cyno CD30L LZ binding to K299 cells (CD30)
Experimental: Anti-CD30L IgG antibodies were titrated into culture diluent (RPMI-1640 medium+10% heat-inactivated fetal bovine serum) and placed into round-bottomed 96-well microtiter plates (Costar® 96 well plate (Corning; Acton, Mass.) to give a range of final concentrations from luglmi to 10 pg/ml. As a positive control, a mouse anti-human CD30L monoclonal antibody was prepared as described in U.S. Pat. No. 5,480,981. The final volume of diluent and CD30L IgG was 100 μl/well. To each well was then added 50 µl of recombinant human CD30L isoleucine zipper ([…]). The huCD30L LZ construct consists of the extracellular domain of human CD30L (see U.S. Pat. No. 5,480,981) linked at its N-terminus to an isoleucine zipper motif modified by replacing the leucine residues with isoleucine residues. The single cell assay was also used to determine cyno cross-reactivity using a cyno CD30L LZ instead of the huCD30L LZ. CynoCD30L LZ was prepared as described for the human LZ molecule.
The plates were incubated for 45 minutes at room temperature. To each well was added 50 μl of K299 cells (4×10⁵ cells/ml). The plates were then incubated for 24 hours at 37° C. 5% CO₂.
The amount of IL-8 in the cell supernatants was determined by sandwich ELISA, using a CDCL8/IL-8 ELISA DuoSet kit according to the manufacturer's instructions (R&D Systems, Minneapolis, Minn.). IL-8 levels were interpolated from the ELISA standard curve using DeltaSoft 3 version 2.2 software (DeltaSoft, Inc. Hillsborough, N.J.). At results were expressed as the mean It standard error of the mean (SEM) for 3 replicate cultures calculated by GraphPad PRISM software v. 4.01 (GraphPad Software Inc., San Diego, Calif.) as were the IC₅₀ values. The IC₅₀ value derived using the huCD30L LZ for Antibody A1 was 2700 pM. The results using the cynoCD30L LZ can be found in Table 5.

Point of comparison: B1, IC50 1.4 nM. Against it:
- B2 — 3.1-fold lower, 0.45 nM
- B3 — within 1.5-fold, 1.3 nM
